Target: T1, KHSRP130-503 (four KH domains) (Homo sapiens, UniProt Q92945 130-503)
T1 sequence: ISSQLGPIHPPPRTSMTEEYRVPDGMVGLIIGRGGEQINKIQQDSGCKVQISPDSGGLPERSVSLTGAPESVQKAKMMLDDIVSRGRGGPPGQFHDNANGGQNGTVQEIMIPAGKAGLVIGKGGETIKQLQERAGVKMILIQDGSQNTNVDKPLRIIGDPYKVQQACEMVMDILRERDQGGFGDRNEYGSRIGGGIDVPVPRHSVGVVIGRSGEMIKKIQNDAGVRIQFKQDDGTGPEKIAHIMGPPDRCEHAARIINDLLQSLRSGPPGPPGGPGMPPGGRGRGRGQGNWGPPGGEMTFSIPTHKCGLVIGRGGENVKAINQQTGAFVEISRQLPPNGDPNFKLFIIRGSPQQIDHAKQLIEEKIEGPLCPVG
Experiment: SPR; 25 C, single-cycle kinetics; SPR at 25 C, 1-20 uM G4 over immobilized protein (buffer not in the material); NMR at 25 C (298 K), protein in 5 mM KH2PO4/K2HPO4 pH 7.0, 20 mM KCl
Conditions: protein: recombinant, tags: N-terminal His-tag (pET-28a), TEV-cleaved

B1: c-Myc (structured_DNA)
DNA: TGAGGGTGGGTAGGGTGGGTAA
- Kd (parallel G4, intramolecular): 130 ± 25 nM

B2: mTel24 (structured_DNA)
DNA: TTGGGTTAGGGTTAGGGTTAGGGA
- Kd (hybrid G4, intramolecular): 1470 ± 480 nM

B3: c-Kit2 (structured_DNA)
DNA: CGGGCGGGCGCTAGGGAGGGT
- Kd (parallel G4, intramolecular): 56 ± 8 nM

B4: Bcl-2 (structured_DNA)
DNA: GGGCGCGGGAGGAATTGGGCGGG
- Kd (hybrid G4, intramolecular): 2000 ± 980 nM

B5: c-Kit1 (structured_DNA)
DNA: AGGGAGGGCGCTGGGAGGAGGG
- Kd (parallel G4, intramolecular): 190 ± 90 nM
